Assay [1] deals with porcine cardiac ventricular myosin (βmys) (porcine) (UniProt P79293).
Assay [2] shares this target. This is another data set of the same source.

In assay [1], “bovine ventricular actin (cardiac actin) (from UniProt Q3ZC07 1-377) (natural protein)” returned an actin-activated myosin ATPase, Km (value of the running text) of 3.6 µM. In assay [2], this substance showed an actin-activated myosin ATPase, Km (0.6 µM myosin titrated with 1–50 µM F-actin, 25 mM KCl, 21°C) of 3.7 µM.

The values are drawn from PMC6282072.
